{
  "source": "paper PMC4836315",
  "key": {"[1]": {"biological_target": "PRRSV nsp11 mutant G137A (PRRSV strain WUH3)", "test": "SEC; data not shown; Superdex 75 10/300 GL under the same buffer conditions (20 mM Tris-HCl pH 7.4, 200 mM NaCl), 1 mg protein"}, "[2]": {"biological_target": "PRRSV nsp11 mutant G138A (PRRSV strain WUH3)", "test": "SEC; data not shown; Superdex 75 10/300 GL under the same buffer conditions (20 mM Tris-HCl pH 7.4, 200 mM NaCl), 1 mg protein"}, "[3]": {"biological_target": "PRRSV nsp11 mutant F76A, pET-30a (+) construct (PRRSV strain WUH3)"}, "[4]": {"biological_target": "PRRSV nsp11 mutant V165A (PRRSV strain WUH3)", "test": "SEC; data not shown; Superdex 75 10/300 GL under the same buffer conditions (20 mM Tris-HCl pH 7.4, 200 mM NaCl), 1 mg protein"}, "[5]": {"biological_target": "PRRSV nsp11 mutant S74A made on the K173A template", "test": "sedimentation velocity analytical ultracentrifugation (AUC)"}, "[6]": {"biological_target": "PRRSV nsp11 mutant F76A made on the K173A template", "test": "sedimentation velocity analytical ultracentrifugation (AUC)"}, "[7]": {"biological_target": "PRRSV nsp11 mutant L54A (PRRSV strain WUH3)", "test": "SEC; data not shown; Superdex 75 10/300 GL under the same buffer conditions (20 mM Tris-HCl pH 7.4, 200 mM NaCl), 1 mg protein"}, "[8]": {"biological_target": "PRRSV nsp11 mutant G1A (PRRSV strain WUH3)", "test": "SEC; data not shown; Superdex 75 10/300 GL under the same buffer conditions (20 mM Tris-HCl pH 7.4, 200 mM NaCl), 1 mg protein"}, "[9]": {"biological_target": "PRRSV nsp11 mutant Y69A (PRRSV strain WUH3)", "test": "SEC; data not shown; Superdex 75 10/300 GL under the same buffer conditions (20 mM Tris-HCl pH 7.4, 200 mM NaCl), 1 mg protein"}, "[10]": {"biological_target": "PRRSV nsp11 mutant R153A made on the K173A template", "test": "sedimentation velocity analytical ultracentrifugation (AUC)"}, "[11]": {"biological_target": "PRRSV nsp11 mutant S74A, pET-30a (+) construct (PRRSV strain WUH3)"}, "[12]": {"biological_target": "PRRSV nsp11 mutant S166A (PRRSV strain WUH3)", "test": "SEC; data not shown; Superdex 75 10/300 GL under the same buffer conditions (20 mM Tris-HCl pH 7.4, 200 mM NaCl), 1 mg protein"}, "[13]": {"biological_target": "PRRSV nsp11 mutant R55A (PRRSV strain WUH3)", "test": "SEC; data not shown; Superdex 75 10/300 GL under the same buffer conditions (20 mM Tris-HCl pH 7.4, 200 mM NaCl), 1 mg protein"}, "[14]": {"biological_target": "PRRSV nsp11 mutant K173A, pET-42b (+) construct with C-terminal His6 tag (PRRSV strain WUH3)", "test": "SEC; Superdex 75 10/300 GL, 20 mM Tris-HCl pH 7.4, 200 mM NaCl, 0.6 ml/min, 4°C, 1 mg protein; masses from a calibration curve; fractions checked by SDS-PAGE"}, "[15]": {"biological_target": "PRRSV nsp11 mutant K173A, pET-42b (+) construct with C-terminal His6 tag (PRRSV strain WUH3)", "test": "AUC; sedimentation velocity, 45,000 rpm, 18°C, 280 nm, c(s) distribution with Sedfit"}, "[16]": {"conditions": "parent: 4.396 (dimer species, 86.67%), 2.614 (monomer species, 14.04%)"}, "[17]": {"conditions": "parent: 63.7 (dimer species, 86.67%), 29.2 (monomer species, 14.04%)"}},
  "data": [
    {"substance": "PRRSV nsp11 mutant G137A (enzyme)", "values": [
      {"measurement": "stoichiometry N", "setting": "[1]", "value": 2}
    ]},
    {"substance": "PRRSV nsp11 mutant G138A (enzyme)", "values": [
      {"measurement": "stoichiometry N", "setting": "[2]", "value": 2}
    ]},
    {"substance": "PRRSV nsp11 mutant F76A, pET-30a (+) construct (enzyme)", "values": [
      {"measurement": "endoribonuclease activity (FRET assay, 2 μM enzyme, 1 μM fluorescent RNA substrate, 25°C), against wild-type nsp11 (fold less than wild type)", "setting": "[3]", "value": "> 4"}
    ]},
    {"substance": "PRRSV nsp11 mutant V165A (enzyme)", "values": [
      {"measurement": "stoichiometry N", "setting": "[4]", "value": 2}
    ]},
    {"substance": "PRRSV nsp11 mutant K173A, pET-42b (+) construct with C-terminal His6 tag S74A", "values": [
      {"measurement": "other: sedimentation coefficient S20,W", "setting": "[5]; [16]", "value": 3.32, "unit": "S"},
      {"measurement": "other: calculated molecular weight (MW) from AUC", "setting": "[5]; [17]", "value": 50.2}
    ]},
    {"substance": "PRRSV nsp11 mutant K173A, pET-42b (+) construct with C-terminal His6 tag F76A", "values": [
      {"measurement": "other: sedimentation coefficient S20,W", "setting": "[6]; [16]", "value": 3.07, "unit": "S"},
      {"measurement": "other: calculated molecular weight (MW) from AUC", "setting": "[6]; [17]", "value": 37.8}
    ]},
    {"substance": "PRRSV nsp11 mutant L54A (enzyme)", "values": [
      {"measurement": "stoichiometry N", "setting": "[7]", "value": 2}
    ]},
    {"substance": "PRRSV nsp11 mutant G1A (enzyme)", "values": [
      {"measurement": "stoichiometry N", "setting": "[8]", "value": 2}
    ]},
    {"substance": "PRRSV nsp11 mutant Y69A (enzyme)", "values": [
      {"measurement": "stoichiometry N", "setting": "[9]", "value": 2}
    ]},
    {"substance": "PRRSV nsp11 mutant K173A, pET-42b (+) construct with C-terminal His6 tag R153A", "values": [
      {"measurement": "other: sedimentation coefficient S20,W", "setting": "[10]; [16]", "value": 3.4, "unit": "S"},
      {"measurement": "other: calculated molecular weight (MW) from AUC", "setting": "[10]; [17]", "value": 40.7}
    ]},
    {"substance": "PRRSV nsp11 mutant S74A, pET-30a (+) construct (enzyme)", "values": [
      {"measurement": "endoribonuclease activity (FRET assay, 2 μM enzyme, 1 μM fluorescent RNA substrate, 25°C), against wild-type nsp11 (fold less than wild type)", "setting": "[11]", "value": "> 4"}
    ]},
    {"substance": "PRRSV nsp11 mutant S166A (enzyme)", "values": [
      {"measurement": "stoichiometry N", "setting": "[12]", "value": 2}
    ]},
    {"substance": "PRRSV nsp11 mutant R55A (enzyme)", "values": [
      {"measurement": "stoichiometry N", "setting": "[13]", "value": 2}
    ]},
    {"substance": "PRRSV nsp11 mutant K173A, pET-42b (+) construct with C-terminal His6 tag (enzyme)", "values": [
      {"measurement": "stoichiometry N", "setting": "[14]", "value": 2},
      {"measurement": "percent dimer", "setting": "[15]", "value": 86.7, "unit": "%"},
      {"measurement": "percent monomer", "setting": "[15]", "value": 14, "unit": "%"}
    ]}
  ]
}
